Assays:
Test in all cases: Kinase Profiling Assay
Format in all cases: biochemical
Conditions in all cases: 100 μM
[1] = biological target: T1, CDK7/cyclinH/MAT1 (h) (Homo sapiens, UniProt P50613)
T1 construct: purchased Millipore
Method in brief: (§1)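 Duplicate wells; [radiolabeled] ATP phosphate onto cationic substrate; filter capture (negatively charged membrane); scintillation count; % of 100% activity control. Selectivity screen of MK2 peptide inhibitors, 266 human kinases.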

[2] = biological target: T2, EphA2 (h) (Homo sapiens, UniProt P29317)
T2 construct: purchased Millipore
Method in brief: as §1

[3] = biological target: T3, EphB3 (h) (Homo sapiens, UniProt P54753)
T3 sequence (P54753 34-998): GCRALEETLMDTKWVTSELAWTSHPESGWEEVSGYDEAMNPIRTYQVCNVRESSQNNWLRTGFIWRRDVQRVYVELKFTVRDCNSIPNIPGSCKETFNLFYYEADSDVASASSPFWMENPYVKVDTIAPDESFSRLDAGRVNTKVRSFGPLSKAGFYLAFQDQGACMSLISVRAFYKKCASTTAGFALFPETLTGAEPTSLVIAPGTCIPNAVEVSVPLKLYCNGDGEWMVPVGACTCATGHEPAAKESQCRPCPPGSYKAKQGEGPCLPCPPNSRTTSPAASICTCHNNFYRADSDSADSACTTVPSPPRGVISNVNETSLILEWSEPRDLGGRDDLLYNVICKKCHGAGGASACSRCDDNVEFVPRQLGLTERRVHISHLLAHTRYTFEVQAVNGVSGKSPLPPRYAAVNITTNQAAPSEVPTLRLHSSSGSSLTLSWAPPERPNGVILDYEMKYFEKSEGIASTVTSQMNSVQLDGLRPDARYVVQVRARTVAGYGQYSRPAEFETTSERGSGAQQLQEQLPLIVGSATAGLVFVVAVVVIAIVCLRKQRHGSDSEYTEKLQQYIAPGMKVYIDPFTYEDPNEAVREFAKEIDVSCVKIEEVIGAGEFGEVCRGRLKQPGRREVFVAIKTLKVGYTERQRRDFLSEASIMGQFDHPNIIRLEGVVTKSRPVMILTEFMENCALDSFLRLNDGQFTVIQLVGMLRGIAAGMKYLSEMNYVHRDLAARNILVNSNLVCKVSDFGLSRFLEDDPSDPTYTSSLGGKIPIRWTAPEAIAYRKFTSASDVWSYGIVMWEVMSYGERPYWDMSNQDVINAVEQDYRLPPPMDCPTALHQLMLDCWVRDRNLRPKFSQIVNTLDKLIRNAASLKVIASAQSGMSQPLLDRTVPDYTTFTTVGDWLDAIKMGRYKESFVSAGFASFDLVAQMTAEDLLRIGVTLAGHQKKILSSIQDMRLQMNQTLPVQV
Method in brief: as §1

[4] = biological target: Fms (h) (Homo sapiens, UniProt P07333)
Method in brief: as §1

[5] = biological target: T4, HIPK1 (h) (Homo sapiens, UniProt Q86Z02)
T4 construct: purchased Millipore
Method in brief: as §1

[6] = biological target: T5, PKG1α (h) (Homo sapiens, UniProt Q13976)
T5 sequence (Q13976 1-671): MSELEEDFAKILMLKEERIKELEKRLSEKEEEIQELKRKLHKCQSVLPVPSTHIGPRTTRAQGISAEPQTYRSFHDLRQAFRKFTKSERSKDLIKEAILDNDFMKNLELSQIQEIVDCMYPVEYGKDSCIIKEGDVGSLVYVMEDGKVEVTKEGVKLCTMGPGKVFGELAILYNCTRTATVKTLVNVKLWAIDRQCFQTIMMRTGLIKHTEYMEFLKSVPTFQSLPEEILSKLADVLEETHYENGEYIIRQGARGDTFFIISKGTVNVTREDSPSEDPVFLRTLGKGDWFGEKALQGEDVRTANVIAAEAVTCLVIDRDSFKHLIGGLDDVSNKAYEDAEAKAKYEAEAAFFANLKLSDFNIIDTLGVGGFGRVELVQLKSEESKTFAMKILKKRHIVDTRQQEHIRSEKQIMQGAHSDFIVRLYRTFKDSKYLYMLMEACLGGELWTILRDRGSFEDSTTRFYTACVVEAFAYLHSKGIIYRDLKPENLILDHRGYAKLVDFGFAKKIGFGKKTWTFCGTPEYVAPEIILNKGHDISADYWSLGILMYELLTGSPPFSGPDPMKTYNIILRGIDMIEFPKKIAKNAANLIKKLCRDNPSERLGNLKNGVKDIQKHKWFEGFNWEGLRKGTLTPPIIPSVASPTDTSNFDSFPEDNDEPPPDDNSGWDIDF
Method in brief: as §1

[7] = biological target: WNK3 (h) (Homo sapiens, UniProt Q9BYP7)
Method in brief: as §1

[8] = biological target: T6, ZAP-70 (h) (Homo sapiens, UniProt P43403)
T6 sequence (P43403 1-619): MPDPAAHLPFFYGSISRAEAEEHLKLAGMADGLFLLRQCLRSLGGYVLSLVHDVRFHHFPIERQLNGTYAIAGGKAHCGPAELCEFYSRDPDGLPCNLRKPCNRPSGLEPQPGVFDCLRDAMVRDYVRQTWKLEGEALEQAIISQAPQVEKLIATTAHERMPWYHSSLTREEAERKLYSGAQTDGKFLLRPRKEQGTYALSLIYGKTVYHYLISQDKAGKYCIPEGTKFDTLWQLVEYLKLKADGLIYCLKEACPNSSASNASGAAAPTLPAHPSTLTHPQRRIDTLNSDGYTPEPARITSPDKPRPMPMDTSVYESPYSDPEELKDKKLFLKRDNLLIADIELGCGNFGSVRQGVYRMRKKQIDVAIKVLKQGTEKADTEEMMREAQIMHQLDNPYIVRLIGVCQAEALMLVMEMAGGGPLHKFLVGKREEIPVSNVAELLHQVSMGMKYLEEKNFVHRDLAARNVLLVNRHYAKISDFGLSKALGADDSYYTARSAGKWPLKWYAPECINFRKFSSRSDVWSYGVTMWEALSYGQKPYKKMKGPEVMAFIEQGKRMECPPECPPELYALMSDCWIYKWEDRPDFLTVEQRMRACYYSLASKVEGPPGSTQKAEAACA
Method in brief: as §1

[9] = biological target: ZIPK (h) (Homo sapiens, UniProt O43293)
Method in brief: as §1

[10] = biological target: T7, EGFR(L858R) (h) (Homo sapiens, UniProt P00533, L858R)
T7 construct: purchased Millipore
Method in brief: as §1

Chain of ZIPK (h) (O43293 whole entry): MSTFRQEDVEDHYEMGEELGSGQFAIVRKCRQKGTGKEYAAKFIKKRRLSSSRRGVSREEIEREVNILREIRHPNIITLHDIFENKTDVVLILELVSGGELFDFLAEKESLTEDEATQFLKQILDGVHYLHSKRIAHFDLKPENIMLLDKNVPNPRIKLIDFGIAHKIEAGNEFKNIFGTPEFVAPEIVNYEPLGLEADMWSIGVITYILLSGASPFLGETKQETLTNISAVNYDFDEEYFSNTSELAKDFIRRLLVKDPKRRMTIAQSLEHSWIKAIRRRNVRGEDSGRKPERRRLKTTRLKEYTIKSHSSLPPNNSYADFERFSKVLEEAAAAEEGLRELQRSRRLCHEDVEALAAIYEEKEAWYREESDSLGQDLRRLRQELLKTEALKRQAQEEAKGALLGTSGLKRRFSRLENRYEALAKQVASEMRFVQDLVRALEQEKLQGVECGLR
Chain of WNK3 (h) (Q9BYP7 whole entry): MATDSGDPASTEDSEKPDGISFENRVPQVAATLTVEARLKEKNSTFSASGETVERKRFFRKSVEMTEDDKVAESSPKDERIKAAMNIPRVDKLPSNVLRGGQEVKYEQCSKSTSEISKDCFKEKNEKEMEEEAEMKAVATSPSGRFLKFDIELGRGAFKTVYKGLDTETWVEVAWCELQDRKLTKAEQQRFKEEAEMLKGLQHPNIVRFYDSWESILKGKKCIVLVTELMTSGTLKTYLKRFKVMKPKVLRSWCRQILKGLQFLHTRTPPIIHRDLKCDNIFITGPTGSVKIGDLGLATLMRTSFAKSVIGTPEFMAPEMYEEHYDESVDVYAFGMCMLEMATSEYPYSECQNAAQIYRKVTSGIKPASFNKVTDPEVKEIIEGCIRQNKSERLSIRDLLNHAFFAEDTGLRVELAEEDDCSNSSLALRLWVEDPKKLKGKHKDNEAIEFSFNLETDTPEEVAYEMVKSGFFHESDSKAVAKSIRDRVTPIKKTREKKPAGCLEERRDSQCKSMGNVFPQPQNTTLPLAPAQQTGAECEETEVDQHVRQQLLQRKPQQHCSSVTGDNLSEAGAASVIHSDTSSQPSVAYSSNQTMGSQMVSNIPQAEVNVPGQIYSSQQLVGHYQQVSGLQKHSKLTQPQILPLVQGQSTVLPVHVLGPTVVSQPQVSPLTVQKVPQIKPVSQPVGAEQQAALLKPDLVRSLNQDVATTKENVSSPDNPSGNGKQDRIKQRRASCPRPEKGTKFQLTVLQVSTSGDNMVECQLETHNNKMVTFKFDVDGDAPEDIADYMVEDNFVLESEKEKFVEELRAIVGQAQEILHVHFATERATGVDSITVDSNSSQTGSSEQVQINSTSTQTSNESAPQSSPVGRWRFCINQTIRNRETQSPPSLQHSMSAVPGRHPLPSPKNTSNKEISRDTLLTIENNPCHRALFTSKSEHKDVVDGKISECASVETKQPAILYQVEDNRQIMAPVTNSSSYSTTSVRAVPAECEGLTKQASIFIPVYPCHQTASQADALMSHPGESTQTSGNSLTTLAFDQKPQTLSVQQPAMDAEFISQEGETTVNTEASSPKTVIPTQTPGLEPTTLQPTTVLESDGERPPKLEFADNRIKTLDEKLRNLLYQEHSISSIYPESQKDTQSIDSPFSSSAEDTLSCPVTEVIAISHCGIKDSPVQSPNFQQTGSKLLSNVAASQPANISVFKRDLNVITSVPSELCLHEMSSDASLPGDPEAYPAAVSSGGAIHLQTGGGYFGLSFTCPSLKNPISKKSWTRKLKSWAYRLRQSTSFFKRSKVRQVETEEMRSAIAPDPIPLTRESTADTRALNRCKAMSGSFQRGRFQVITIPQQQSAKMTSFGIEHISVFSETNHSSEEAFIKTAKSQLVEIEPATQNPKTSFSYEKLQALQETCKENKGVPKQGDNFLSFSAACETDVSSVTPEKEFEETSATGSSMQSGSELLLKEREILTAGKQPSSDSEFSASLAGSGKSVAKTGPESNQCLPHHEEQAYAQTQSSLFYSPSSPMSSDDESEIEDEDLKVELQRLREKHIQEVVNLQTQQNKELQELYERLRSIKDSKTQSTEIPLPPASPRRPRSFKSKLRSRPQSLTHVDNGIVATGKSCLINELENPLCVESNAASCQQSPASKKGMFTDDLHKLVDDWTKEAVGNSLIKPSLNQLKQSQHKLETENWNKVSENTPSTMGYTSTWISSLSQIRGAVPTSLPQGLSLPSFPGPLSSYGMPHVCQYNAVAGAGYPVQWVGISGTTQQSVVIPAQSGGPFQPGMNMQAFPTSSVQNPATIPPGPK
T1 sequence (P50613 whole entry): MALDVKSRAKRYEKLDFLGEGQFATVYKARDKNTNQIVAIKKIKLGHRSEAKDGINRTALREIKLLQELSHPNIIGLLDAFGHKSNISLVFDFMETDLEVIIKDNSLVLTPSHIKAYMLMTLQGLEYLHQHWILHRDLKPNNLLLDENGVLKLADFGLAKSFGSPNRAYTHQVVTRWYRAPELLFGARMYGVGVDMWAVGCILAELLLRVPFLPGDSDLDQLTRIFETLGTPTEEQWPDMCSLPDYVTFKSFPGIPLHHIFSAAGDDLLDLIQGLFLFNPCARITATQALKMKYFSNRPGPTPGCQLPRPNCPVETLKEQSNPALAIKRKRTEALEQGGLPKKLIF
T1 sequence (P51946 whole entry partner): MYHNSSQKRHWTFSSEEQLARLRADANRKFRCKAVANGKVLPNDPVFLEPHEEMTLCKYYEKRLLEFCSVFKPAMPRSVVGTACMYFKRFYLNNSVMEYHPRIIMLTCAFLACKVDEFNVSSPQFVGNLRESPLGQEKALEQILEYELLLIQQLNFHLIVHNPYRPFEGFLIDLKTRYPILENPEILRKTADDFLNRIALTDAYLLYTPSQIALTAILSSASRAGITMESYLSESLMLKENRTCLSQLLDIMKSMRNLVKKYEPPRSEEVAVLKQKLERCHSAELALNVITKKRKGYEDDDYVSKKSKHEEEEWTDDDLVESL
T1 sequence (P51948 whole entry partner): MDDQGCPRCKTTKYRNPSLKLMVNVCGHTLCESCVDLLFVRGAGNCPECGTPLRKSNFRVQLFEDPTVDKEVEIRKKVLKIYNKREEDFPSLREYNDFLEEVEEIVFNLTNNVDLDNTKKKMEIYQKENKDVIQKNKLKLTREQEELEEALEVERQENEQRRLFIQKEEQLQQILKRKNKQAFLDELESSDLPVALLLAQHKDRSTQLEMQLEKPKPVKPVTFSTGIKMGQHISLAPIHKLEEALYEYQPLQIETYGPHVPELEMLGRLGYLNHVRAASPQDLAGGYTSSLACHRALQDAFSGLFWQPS
T4 sequence (Q86Z02 whole entry): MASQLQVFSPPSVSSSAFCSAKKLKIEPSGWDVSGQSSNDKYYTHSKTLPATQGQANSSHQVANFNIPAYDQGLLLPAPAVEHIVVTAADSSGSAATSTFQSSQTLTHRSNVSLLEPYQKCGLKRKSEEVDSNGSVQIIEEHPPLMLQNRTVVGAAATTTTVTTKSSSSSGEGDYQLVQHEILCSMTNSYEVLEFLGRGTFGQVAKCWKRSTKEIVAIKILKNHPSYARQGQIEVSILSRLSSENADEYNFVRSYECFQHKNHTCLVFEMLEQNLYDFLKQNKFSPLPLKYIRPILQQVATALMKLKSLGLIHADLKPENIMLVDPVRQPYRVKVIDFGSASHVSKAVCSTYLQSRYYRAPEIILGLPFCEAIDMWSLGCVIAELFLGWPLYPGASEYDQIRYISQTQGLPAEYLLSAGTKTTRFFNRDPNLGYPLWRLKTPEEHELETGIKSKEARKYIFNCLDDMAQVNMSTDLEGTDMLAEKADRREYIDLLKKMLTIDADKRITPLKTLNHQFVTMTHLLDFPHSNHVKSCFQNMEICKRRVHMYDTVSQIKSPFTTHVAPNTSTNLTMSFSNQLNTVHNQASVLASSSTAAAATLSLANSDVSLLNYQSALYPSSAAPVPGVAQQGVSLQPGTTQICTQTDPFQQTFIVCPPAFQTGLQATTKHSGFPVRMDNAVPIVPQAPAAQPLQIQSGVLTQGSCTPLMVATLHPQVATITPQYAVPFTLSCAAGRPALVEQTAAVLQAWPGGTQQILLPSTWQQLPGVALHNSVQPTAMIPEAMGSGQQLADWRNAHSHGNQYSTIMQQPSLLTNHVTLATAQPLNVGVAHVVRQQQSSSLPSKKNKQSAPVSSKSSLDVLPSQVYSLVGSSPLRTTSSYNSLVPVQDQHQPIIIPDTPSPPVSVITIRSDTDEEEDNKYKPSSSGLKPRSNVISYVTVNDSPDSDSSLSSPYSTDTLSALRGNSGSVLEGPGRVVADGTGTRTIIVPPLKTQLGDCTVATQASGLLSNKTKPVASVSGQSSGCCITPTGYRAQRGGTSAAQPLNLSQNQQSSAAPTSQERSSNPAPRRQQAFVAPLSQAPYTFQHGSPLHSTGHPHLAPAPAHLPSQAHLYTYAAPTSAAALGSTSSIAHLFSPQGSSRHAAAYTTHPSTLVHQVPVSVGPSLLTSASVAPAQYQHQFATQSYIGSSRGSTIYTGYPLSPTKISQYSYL

Row | Sequence | % activity [1] | % activity [2] | % activity [3] | % activity [4] | % activity [5] | % activity [6] | % activity [7] | % activity [8] | % activity [9] | % activity [10]
1 | FAKLAARLYRKALARQLGVAA [MMI-0300] | 65% | 31% | 62% | 45% | 74% | 64% | 77% | 75% | 28% | –
2 | HRRIKAWLKKIKALARQLGVAA (Mammalian) [MMI-0500] | 15% | – | 79% | 14% | 47% | 25% | 9% | 1% | 1% | 26%
3 | KAFAKLAARLYRKALARQLGVAA [MMI-0400] | 47% | 17% | 47% | 37% | 91% | 58% | 74% | 33% | 13% | 52%
4 | YARAAARQARAKALNRQLGVA (Mammalian) [MMI-0200] | 67% | 95% | 128% | 92% | – | 70% | 97% | 58% | 67% | 120%
